Data on eight molecules can be found in patent US20210285965A1 (SEATTLE CHILDREN S HOSPITAL D B A SEATTLE CHILDREN S …, published 2021).

Holding throughout (experiment): immunoaffinity peptide capture on mAb-Protein G magnetic beads, read by SRM-MS (immuno-SRM); ELISA screening
Test [1] has as its target T1, CD42 154-165 signature peptide (TLPPGLLTPTPK).
T1 construct: Endogenous tryptic peptide of CD42 (glycoprotein Ib) from digested dried blood spots of patients and normal controls
T1 peptide: TLPPGLLTPTPK

For test [2], the target named is T2, ADA 93-101 signature peptide (EGVVYVEVR) (human).
T2 peptide: EGVVYVEVR

For test [3], the target named is T3, DOCK8 1272-1283 signature peptide (TSGIVLSSLPYK).
T3 construct: Endogenous tryptic peptide of DOCK8 from digested dried blood spots of patients and normal controls
T3 peptide: TSGIVLSSLPYK

The target in test [4] is T4, CD42 128-137 signature peptide (LTSLPLGALR).
T4 construct: Endogenous tryptic peptide of CD42 (glycoprotein Ib) from digested dried blood spots of patients and normal controls
T4 peptide: LTSLPLGALR

For test [5], the target named is T5, SH2D1A 19-32 signature peptide (LLLATGLDGSYLLR).
T5 construct: Tryptic peptide of SH2D1A (SAP); also called SAP
T5 peptide: LLLATGLDGSYLLR

In test [6] the target is T6, ATM 1561-1572 signature peptide (LLDPFPDHVVFK).
T6 construct: Endogenous tryptic peptide of ATM from digested dried blood spots of normal controls
T6 peptide: LLDPFPDHVVFK

Test [7] has as its target T7, CD56 122-130 signature peptide (NAPTPQEFR).
T7 construct: Endogenous tryptic peptide of CD56 (NCAM) from digested dried blood spots of patients and normal controls
T7 peptide: NAPTPQEFR

For test [8], the target named is T8, CYBB 509-521 signature peptide (TLYGRPNWDNEFK).
T8 construct: Endogenous tryptic peptide of CYBB from digested dried blood spots of patients and normal controls
T8 peptide: TLYGRPNWDNEFK

B1: anti-CD42 154 monoclonal antibody (antibody, V domains shown)
VH: EVQLQQSGPELVKPGASVKMSCKASGYTFTGYNMHWVKQSHGKSLEWIGDINPKTGENSYNQKFKGKATLTISKSSSTAYMELRSLTSEDSAVYYCVRWGVYYLDHWGQGTTLTVSS
VL: DIVMTQAAFSNPVTLGTSASISCRSTKSLLYSDGITYLYWYLQRPGQSPQLLIYRMSDLASGVPDRFSGSGSGTDFTLRISRVEAEDVGVYYCAQMVEFPPTFGGGTKLEIK
notes: Hybridoma antibody; also called Hybridoma SJSH4-1H11c
Take B1: the binding result in test [1] is reported as “binds”.

B2: anti-ADA 93 monoclonal antibody (antibody, V domains shown)
VH: QEQLEESGGDLVKPGSSLTLTCTASGFSFTNSDWECWVRQAPGKGLEWIACIYGDSRSGYYASWAKGRFTISKTSSTTVTLQMTTLTAADTATYFCARNLGSLWGPGTLVTVSS
VL: QVLTQTPSSVSAAVGGTVTINCQSSQNVVFNNRLAWFQQKPGQPPKLLIYQASTLASGVPPRFKGSGSGTQFTLTISDLECDDAATYYCLGSYDCSSTDCNTFGGGTEVVVKG
notes: Full heavy and light chains without leader; also called clone EB0608A-3C12-H2 / EB0608A-3C12-K2
With B2, the binding result in test [2] is “binds”.

B3: anti-DOCK8 1272 monoclonal antibody (antibody, V domains shown)
VH: EVQLQQSGTVLARPGASVKMSCKASGYTFTSYWMHWVKQRPGQGLEWIGAIFPGNSNTRYNQKFKGKAKLTAVTSASTAYMELSSLTNEDSAVYYCADDNAFDYWGQGTTLTVSS
VL: QIVLTQSPAIMSASPGEKVTMTCSASSSVSSRYLHWYQQKSGASPKLWIYGTSNLSSGVPDRFSGSGSGTSYSLTISSVETEDAATYYCQQYHSDPFTFGTGTKLEIK
notes: Hybridoma antibody; also called Hybridoma SJSH5-1C2-2E
With B3, the binding result in test [3] is “binds”.

B4: anti-CD42 128 monoclonal antibody (antibody, V domains shown)
VH: QAYLQQSGAVLVRPGASVKMSCKASGYTFSSYNIHWVKQTPRQGLEWIGGIYPGNGDTSYNKKFKDKATLTVDKSSNTAYMHLSSLTSEDSAVFFCASDGTRYWGQGTTLTVSS
VL: EVVMTQTPLTLSVTIGQAVSISCTSSQSLLASDGKTYLNWLLQRPGQSPKRLIYLVSKLDSGVPDRFTGSGSGTDFTLKISRVEADDLGVYCCWQGAHSPLTFGAGTRLELK
notes: Hybridoma antibody; also called Hybridoma SJSH4 3B8-1b
For the molecule B4, the binding result in test [4] is recorded as “binds”.

B5: anti-SH2D1A (SAP) 19 monoclonal antibody (antibody, V domains shown)
VH: QSLEESGGRLVTPGGTLTLTCTVSGFSLSSYDMSWVRQAPGKGLEWIGFGNTGGSTYYASWAKGRFTISRTSTTVDLRMTSLTAADTATYFCTRGAPGWITTNMWGPGTLVTVSL
VL: QVLTQTPSPVSAAVGGTVTISCQSSQSVYRNKCLAWYQQKPGQPPKLLIYKASTLASGVPSRFSGSGSGTQFTFTISDLECDDSATYYCVGYYNTNTNTTTFGGGTEVVVKG
notes: Full heavy and light chains without leader; also called Anti-SH2D1A 19; clone EB0612B-2F4-H1 / EB0612B-2F4-K1
Take B5: the binding result in test [5] is given as “binds”.

B6: anti-ATM 1561 monoclonal antibody (antibody, V domains shown)
VH: QEQLVESGGGLVQPGGSLTLTCKASGFDFSSGGMCWVRQAPGKGLEWIGCIVNGDGSTYFATWAKGRFTITRTSSTTVTLQMTSLTAADTATYFCWRYWALWGPGTLVTVSS
VL: IVMTQTPSSKSVPVGGTVTINCQASESLYNNNRLAWFQQKPGQPPKLLIYSASTLASGVPDRFSGSGSGTQFTLTISDVVCDDAATYYCVGGRSRVTDGIAFGGGTEAVVKG
notes: Full heavy and light chains without leader; also called clone EB0608D-4A10-H4 / EB0608D-4A10-K1
As to B6, in test [6], the binding result is reported as “binds”.

B7: anti-CD56 122 monoclonal antibody (antibody, V domains shown)
VH: QSLEESGGDLVKPGASLTLTCKASGLDFSSNYYMCWVRQAPGKGLEWIACIYSSSLNTWYASWAKGRFTISKSTSLHTVTLQMTSLTAADTATYFCTRGGGVYVGADYGFYFYLWGPGTLVTVSS
VL: DIVMTQTPSSVEAPVGGTVTIKCQASQSIDSWCAWYQQKPGQPPKLLIYKASTLESGVPSRFKGSGSGTEFTLTISDLECADAATYFCQSYYPTTGSDNAFGGGTEVVVKG
notes: Full heavy and light chains without leader; also called clone EB0608C-3H4-H2 / EB0608C-3H4-K2
For B7, the binding result in test [7] was “binds”.

B8: anti-CYBB 509 monoclonal antibody (antibody, V domains shown)
VH: QSLEESGGGLVKPGASLTLTCTASGFSFSRSYWICWVRQAPGKGLEWLGCIYAGSSGSTYYASWAKGRFTISKTSSTTVTLQMTSLTAADTATYFCARGNNNIIILDLWGPGILVTVSS
VL: AVLTQTPSPVSAAVGGTVTISCQASQSVYNNNALSWYQQKPGQPPKLLIYDASDLAPGVPSRFSGSGSGTQFTLTISDVQCDDAATYYCLGGYSVSSDNAFGGGTEVVVNG
notes: Full heavy and light chains without leader; also called clone EB0611C-1E12-H2 / EB0611C-1E12-K2
Regarding B8, the binding result in test [8] is “binds”.
